Source: patent US20060045884A1 (BOARD OF REGENTS, published 2006)

What follows are binders tested against T1, HLA-A2.1 (HLA-A*0201) with β2-microglobulin on the surface of T2 cells (human) (assay: T2 cell HLA-A2.1 stabilisation, flow cytometry (FIG. 34)).
T1 construct: also called surface HLA-A2.1 on T2

Binder	binding result
SLWRRPFNV [MY1 peptide (myeloperoxidase derived)]	binds
RLFEQVMRI [MY4 peptide (myeloperoxidase derived)]	binds
KLLLALAGL [MY2 peptide (myeloperoxidase derived)]	binds
LIQPFMFRL [MY5 peptide (myeloperoxidase derived)]	binds
LLSYFKQPV [MY3 peptide (myeloperoxidase derived)]	binds

What follows are binders tested against T2, HLA-A2.1 heavy chain with I125-labeled β2-microglobulin (heterotrimer dissociation assay) (human, I^125-labeled) (assay: dissociation of 125I-β2-microglobulin from the HLA-A2.1/peptide/β2m heterotrimer, HPLC gel filtration).
T2 construct: The complex is isolated by HPLC gel filtration; T1/2 is the half-time of β2m dissociation from the complex that holds the tested peptide; also called heterotrimer complex of the HLA-A2.1 heavy chain, peptide, and β2-microglobulin

Binder	T1/2 [h]
VLQELNVTV (Synthetic peptide, at least 95% pure) [PR1 peptide (proteinase 3 aa 169-177)]	24.3
RLFPDFFTRV (Synthetic peptide) [PR2 peptide (proteinase 3 derived)]	2.33

The binders below were run against T2, HLA-A2.1 heavy chain with I125-labeled … (assay: 125I-β2-microglobulin dissociation from the heterotrimer, gel filtration).

Binder	binding result
SLWRRPFNV [MY1 peptide (myeloperoxidase derived)]	binds
RLFEQVMRI [MY4 peptide (myeloperoxidase derived)]	binds
KLLLALAGL [MY2 peptide (myeloperoxidase derived)]	binds
LIQPFMFRL [MY5 peptide (myeloperoxidase derived)]	binds
LLSYFKQPV [MY3 peptide (myeloperoxidase derived)]	binds

Each binder was assayed against T1, HLA-A2.1 (HLA-A*0201) with … (assay: peptide-binding assay, HLA-A2 stabilisation on T2 cells; reference peptide PR1).

Binder	FI ratio to PR1 (stabilisation of HLA-A2 on T2 cells) [ratio]
ILLDWLMEV (also called cyclin E1 peptide) [CCNE1144-152 (cyclin E1 derived nonameric peptide)]	1.01
ILLDWLLEV (also called cyclin E2 peptide) [CCNE2144-152 (cyclin E2 derived nonameric peptide)]	1.19
